The labels stand for the following.
B1: VHH281 (VHH)
VHH: EVQLVESGGGLVQPGGSLRLSCAASGFTFGSYDMSWVRQAPGKGPEWVSYIDSGGRTTYYADSVKGRFTISRDNARNTVYLQMNSLKPEDTAVYYCAREAHGSGWSAANYYGMDYWGEGTQVTVSS
notes: From a naive llama VHH phage library (UCB Biopharma); cloned into pET21a(+); not shown: His6, N-terminal, kept
B2: VHH210 (VHH)
VHH: EVQLVESGGGLVQPGGSLRLSCAASGFTFSSSWMYWVRQVPGKGLEWLSDVDPGGGNTYYADSVKGRFTISRDNAKKVLYLQMNSLKPEDTAVYYCNADTYVPKDGGGWSPEYDIWGQGTQVTVSS
notes: as for B1
B3: VHH251 (VHH)
VHH: EVQLVESGGGLVQPGGSLRLSCQASGFAFSSSTMYWVRQTPGKGLEWVSSITRGGTNTYYRDSVKGRFTISRDNNKNALYLQMNSLKPEDTAVYYCNADTYVPKDGGGWSPEYDIWGQGTLVTVSS
notes: as for B1
B4: VHH264 (VHH)
VHH: B3 VHH with N74D, N75A, A78T, E112D, L121Q
notes: as for B1
B5: VHH238 (VHH)
VHH: EVQLVESGGGLVQPGGSLRLSCAASGFTISNHDMHWVRQAPGKGLEWVSSINPGGTYTEYRDSVKGRFTISRDNAKNTLYLQMNDLKPQDTAVYYCNAWGKGVEYDYWGQGTQVTVSS
notes: as for B1
B6: VHH227 (VHH)
VHH: EVQLVESGGNLVQPGGSLRLSCAASGFTFSKYAMNWVRQAPGKGLEWVSAINSFAGSTSYADSVKGRFTISRDNAKNTLYLQMNSLKPEDTAVYYCKYRGYYGQGTQVTVSS
notes: as for B1
B7: VHH234 (VHH)
VHH: EVQLVESGGGLVQPGGSLRLSCAASGFTFSSYAMNWVRQAPGKGLEWVSAINSGGGTTDYADSVKGRFTISRDNAKNTLYLQMNSLKPEDTAVYYCARGKLGNGLEWGQGTQVTVSS
notes: as for B1
B8: VHH245 (VHH)
VHH: EVQLVESGGDLVQPGGSLRLSCSASGFTFDDYAMNWIRQAPGKGLEWVSSISWNGDSTYYAESMKGRFTISRDNAKNTLYLQMNSLQSEDTAVYYCNAQEYVGAHVYDYWGQGTQVTVSS
notes: as for B1
B9: VHH214 (VHH)
VHH: EVQLVESGGGLVQAGGSLRLSCAASGLLFDINDMGWYRQAPGKQREMVATIRSGGSTVYAEAVKGRFTISRDDAKHSVHLQMNNLKPEDSAVYYCHRTYNSYADWGQGTQVTVSS
notes: as for B1
B10: VHH209 (VHH)
VHH: EVQLVESGGGLVQPGGSLRLSCAASGFTFSNYAMSWVRQAPGKGLEWVSSIESGSSRTIYRDSVKGRFTISRDNAKNTVYLQMNSLKPEDTAVYYCNADTYVPKDGSGWSPEYDVYGQGTQVTVSS
notes: as for B1
B11: VHH204 (VHH)
VHH: EVQLVESGGGLVQAGGSLRLSCVASGRTISSYAMTWVRHAPGKGLEWVSTISTDASNTYYADSVKGRFTVSRDNAKNTVYLQMNSLKPEDTALYYCARVRLDGWEYDYWGQGTQVTVSS
notes: From a naive llama VHH phage library (UCB Biopharma); cloned into pET21a(+); also called VH204; not shown: His6, N-terminal, kept
B12: VHH229 (VHH)
VHH: EVQLVESGGGLVQPGGSLRLSCAASGFTFRRYDMSWVRQVPGKGLEWVSDINSGGDSTNYADSVKGRFTISRDNNKNVLYLQMNSLKPEDTAVYYCNADTYVPKDGGGWSPEYDIWGQGTQVTVSS
notes: as for B1
B13: VHH235 (VHH)
VHH: EVQLVESGGGLVQPGGSLRLSCAASGFNFGNSAMSWFRQAPGKGLEWVSSINSGGGGSVYRASVKGRFTISRDDAKNTLFLQMNSLKPEDTAVYYCNADTYVPKDGGGWSPEYDIWGQGTLVTVSS
notes: as for B1
B14: VHH201 (VHH)
VHH: EVQLVESGGGLVQAGESLTLSCAASGNSFDDYAVGWFRQAPGKEREGVGCINCETGVTTYYADSVKGRFTIHRDNAKNTVYLQMNSLKLEDTATYYCAADRWGTRLVAATYDYWGQGTQVTVSS
notes: as for B1
B15: VHH228 (VHH)
VHH: B14 VHH with E1Q, A14P, E16G, A24V, N27F, S28R, V34I
notes: as for B1

Positions count from the first letter of the chain named.

T1 sequence (chain, as listed by the source): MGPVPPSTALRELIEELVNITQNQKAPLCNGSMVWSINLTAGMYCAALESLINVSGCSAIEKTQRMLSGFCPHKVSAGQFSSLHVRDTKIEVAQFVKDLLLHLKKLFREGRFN

One test has as its target T1, human Interleukin-13 (IL-13) (1-113) (Homo sapiens).
T1 construct: source: 15N or 15N/13C labelled for NMR
Briefly: BLI; Octet QKe; N-terminally His-tagged VHH loaded on Ni-NTA biosensors (100 nM), titrated with untagged IL-13; 300 s association, 300 s dissociation; 25°C; HBS-EP+ (10 mM HEPES pH 7.4, 150 mM NaCl, 3 mM EDTA, 0.005% Tween-20); steady-state curves, one-site binding model. Particulars: both partners purified. Background: In BLI a coated tip is dipped into the sample, and binding shifts an interference pattern.
On to B1, for which the dissociation constant (Kd) was found to be 0.4 µM.

In turn, B2 yielded a Kd of 0.04 µM. Compared with the last molecule, the Kd is about 10-fold lower.

B3: the Kd was determined as 2.2 µM. This Kd is about 55-fold higher than that of the molecule before.

Molecule B4 came in with a Kd of 3.9 µM.

As to B5, the Kd is 0.2 µM.

As to B6, binding was put at a Kd of 5.5 µM. Against the preceding molecule, the Kd is about 28-fold higher.

In the case of B7, the affinity, expressed as Kd, was 4.1 µM. The Kd values of the last two molecules are within 1.5-fold of each other.

Take B8: the Kd was determined as 0.2 µM.

B9: the Kd amounted to 4.8 µM.

For the molecule B10, the affinity, expressed as Kd, was 2.2 µM.

As for B11, binding was characterised by a dissociation constant (Kd) of 2.6 µM.

With B12, the equilibrium dissociation constant (Kd) stood at 0.2 µM.

The molecule B13 came in with a dissociation constant Kd of 3.6 µM.

B14 had an equilibrium dissociation constant (Kd) of 0.9 µM. This Kd is about 4-fold lower than that of the molecule before.

In turn, B15 yielded a dissociation constant Kd of 0.9 µM.

The target in a further test is T1, human Interleukin-13 (IL-13) (1-113). The test is described as follows: cell-based or functional assay.
Conditions: not given
Turning to B1, the “IC50 of inhibition of IL-13 signalling (STAT6/SEAP reporter, HEK-Blue IL-4/IL-13 cells); blocks IL-13 signalling through IL-13Rα1 and IL-4Rα” value came to 34.3 µM.

Regarding B2, the “IC50 of inhibition of IL-13 signalling (STAT6/SEAP reporter, HEK-Blue IL-4/IL-13 cells); blocks IL-13 signalling through IL-13Rα1 and IL-4Rα” value came out at 0.2 µM.

With B3, the “IC50 of inhibition of IL-13 signalling (STAT6/SEAP reporter, HEK-Blue IL-4/IL-13 cells); blocks IL-13 signalling through IL-13Rα1 and IL-4Rα” value came out at 6.9 µM.

Regarding B4, the “IC50 of inhibition of IL-13 signalling (STAT6/SEAP reporter, HEK-Blue IL-4/IL-13 cells); blocks IL-13 signalling through IL-13Rα1 and IL-4Rα” value was found to be 14.5 µM.

Take B5: the “IC50 of inhibition of IL-13 signalling (STAT6/SEAP reporter, HEK-Blue IL-4/IL-13 cells); blocks IL-13 signalling through IL-13Rα1 and IL-4Rα” value was 1.7 µM.

As to B6, the “IC50 of inhibition of IL-13 signalling (STAT6/SEAP reporter, HEK-Blue IL-4/IL-13 cells); blocks IL-13 signalling through IL-13Rα1 and IL-4Rα” value is 63.5 µM.

As for B7, the “IC50 of inhibition of IL-13 signalling (STAT6/SEAP reporter, HEK-Blue IL-4/IL-13 cells); blocks IL-13 signalling through IL-13Rα1 and IL-4Rα” value came out at 49.6 µM.

For the molecule B8, the “IC50 of inhibition of IL-13 signalling (STAT6/SEAP reporter, HEK-Blue IL-4/IL-13 cells); blocks IL-13 signalling through IL-13Rα1 and IL-4Rα” value was determined as 3.7 µM.

On to B9, for which the “IC50 of inhibition of IL-13 signalling (STAT6/SEAP reporter, HEK-Blue IL-4/IL-13 cells); blocks IL-13 signalling through IL-13Rα1 and IL-4Rα” value turned out to be 154 µM.

For the molecule B10, the “IC50 of inhibition of IL-13 signalling (STAT6/SEAP reporter, HEK-Blue IL-4/IL-13 cells); blocks IL-13 signalling through IL-13Rα1 and IL-4Rα” value came to 67.8 µM.

For B11, the “IC50 of inhibition of IL-13 signalling (STAT6/SEAP reporter, HEK-Blue IL-4/IL-13 cells); blocks IL-13 signalling through IL-13Rα1 and IL-4Rα” value was determined as 26.2 µM.

Consider B12, for which the “IC50 of inhibition of IL-13 signalling (STAT6/SEAP reporter, HEK-Blue IL-4/IL-13 cells); blocks IL-13 signalling through IL-13Rα1 and IL-4Rα” value was 11.4 µM.

With B13, the “IC50 of inhibition of IL-13 signalling (STAT6/SEAP reporter, HEK-Blue IL-4/IL-13 cells); blocks IL-13 signalling through IL-13Rα1 and IL-4Rα” value was found to be 74.3 µM.

Turning to B14, the “IC50 of inhibition of IL-13 signalling (STAT6/SEAP reporter, HEK-Blue IL-4/IL-13 cells); blocks IL-13 signalling through IL-13Rα1 and IL-4Rα” value turned out to be 37.7 µM.

Regarding B15, the “IC50 of inhibition of IL-13 signalling (STAT6/SEAP reporter, HEK-Blue IL-4/IL-13 cells); blocks IL-13 signalling through IL-13Rα1 and IL-4Rα” value turned out to be 56 µM.

A word on the Kd: it is a measure of binding affinity in units of concentration. Read a low Kd as tighter binding.

The record behind these values is article PMC10359924, “Identification and characterisation of anti-IL-13 inhibitory single domain antibodies provides new insights into receptor selectivity and attractive opportunities for drug discovery” (Frontiers in Immunology, 2023).
